Publication doi:10.1101/2023.04.10.536149

Legend:
[1] = target: T1, MBP-MafB WT (Homo sapiens, UniProt Q9Y5Q3 1-323); assay: competition
[2] = target: T1, MBP-MafB WT; assay: EMSA
[3] = target: MBP-MafB ΔHis (Homo sapiens, UniProt Q9Y5Q3 1-323, del131-167); assay: EMSA

B1: unlabelled MARE competitor (dsDNA)
DNA 1: TGCTGACTCAGCA
DNA 2: TGCTGAGTCAGCA
Q: Does B1 bind [1]?
A: Result: binds

B2: IRDye700 MARE EMSA probe (dsDNA)
DNA 1: TGCTGACTCAGCA
DNA 2: TGCTGAGTCAGCA
Q: What does the source list for B2?
A: binding result [2]: binds; binding result [3]: binds
